Non-standard residues stand in square brackets, D forms with d. No end group written: not given here. *: point of attachment. X2 = Eicosanedioic‑γGlu‑(AEEA)2‑Lys(Ac)‑Gly, CC(=O)NCCCC[C@H](NC(=O)COCCOCCNC(=O)COCCOCCNC(=O)CC[C@H](NC(=O)CCCCCCCCCCCCCCCCCCC(=O)O)C(=O)O)C(=O)NCC(=O)*; Aib = CC(C)(N)C(=O)O

This note sets out measurements from US20250326814A1 (OPKO BIOLOGICS, published 2025).

Holding throughout (test): cell-based or functional assay
For assay [1], the target named is glucagon-like peptide-1 receptor (GLP-1R).
The target in assay [2] is glucagon receptor (GCGR).
Assay [3] concerns the target glucagon-like peptide-1 receptor (GLP-1R). The source holds these as a separate data set.
In assay [4] the target is glucagon receptor (GCGR). The source holds these as a separate data set.
Assay [5] addresses glucagon-like peptide-1 receptor (GLP-1R). The source holds these as a separate data set.
For assay [6], the target named is glucagon receptor (GCGR). The source holds these as a separate data set.
For assay [7], the target named is glucagon-like peptide-1 receptor (GLP-1R). The source holds these as a separate data set.

Regarding H[Aib]QGTFTSDYSKYLDSKKAQEFVQWLLN[Aib]GRNRNNIAC(Eicosanedioic‑γGlu‑Glu‑(AEEA)3‑Lys(Ac)‑Gly)-NH2 [Variant 3 (Formula XVI)], the “EC50 (nM), GLP-1 activity” value in assay [1] is 0.15 nM.

H[Aib]QGTFTSDYSKYLDSKKAQEFVQWLLN[Aib]GRNRNNIAC-NH2 (not fully specified (residue 38)) [Variant 2 (Formula XV)]: the “EC50 (nM), GLP-1 activity” value in assay [1] is 0.1 nM.

B1: OPK-88003 FA mono conjugate (modified OXM of Formula XXII or Formula XXIII; in Table 9 a mixture of both) (peptide)
peptide: HXQGTFTSDYSKYLDSKKAQEFVQWLLNXGRNRNNIACC
modifications: Aib at positions 2 and 29; one Eicosanedioic-gGlu-Glu-AEEA-AEEA-AEEA-Lys(Ac-)-Gly-OH binder on Cys38 (Formula XXII, SEQ ID NO: 47) or on Cys39 (Formula XXIII, SEQ ID NO: 48); C-terminal amide (backbone C^38C^39-NH2)
On to B1, for which the “EC50 (nM), GLP-1 activity” value in assay [1] was found to be 0.21 nM. Besides, in the assay with glucagon receptor (GCGR) [2], the “% EC50 compare to KPI (GCGR)” value worked out at 38%; the “Activity fold reduction compared to OPK-88003 KPI (GCGR)” value stood at 2.65 fold; the “EC50 [nM] GCGR, CBA potency assay” value is 1.6 nM. In addition, in assay [3], the “% EC50 compare to KPI (GLP1)” value stood at 60%; the “Activity fold reduction compared to OPK-88003 KPI (GLP1)” value came out at 1.65 fold; the “EC50 [nM] GLP1, CBA potency assay” value worked out at 0.21 nM. In the assay with glucagon receptor (GCGR) [4], the “% EC50 compare to KPI (GCGR), with HSA added (FA-conjugate + HSA)” value came to 2.6%; the “% EC50 compare to KPI (GCGR), without HSA” value turned out to be 45%; the “Activity fold reduction compared to OPK-88003 KPI (GCGR), with HSA added (FA-conjugate + HSA)” value was 38.6 fold; the “Activity fold reduction compared to OPK-88003 KPI (GCGR), without HSA” value worked out at 2.2 fold. For the same molecule, in the assay with glucagon receptor (GCGR) [4], the “EC50 [nM] GCGR, CBA potency assay, with HSA added (FA-conjugate + HSA)” value came to 52.9 nM and the “EC50 [nM] GCGR, CBA potency assay, without HSA” value is 3.04 nM. Besides, in assay [5], the “% EC50 compare to KPI (GLP1), with HSA added (FA-conjugate + HSA)” value amounted to 8.9%; the “% EC50 compare to KPI (GLP1), without HSA” value turned out to be 100%; the “Activity fold reduction compared to OPK-88003 KPI (GLP1), with HSA added (FA-conjugate + HSA)” value worked out at 11.2 fold; the “EC50 [nM] GLP1, CBA potency assay, with HSA added (FA-conjugate + HSA)” value is 2.27 nM. Besides, the “EC50 [nM] GLP1, CBA potency assay, without HSA” value in assay [5] is 0.2 nM.

Take H[Aib]QGTFTSDYSKYLDSKKAQEFVQWLLN[Aib]GRNRNNIAC(X2)-NH2 [OPK-88604 (modified OXM of Formula XIV)]: the “EC50 (nM), GLP-1 activity” value in assay [1] amounted to 0.09 nM. In addition, the “EC50 (nM) GCGR, glucagon activity in vitro” value with glucagon receptor (GCGR) [6] came out at 0.164 nM. The “EC50 (nM) GLP-1R, GLP-1 activity in vitro” value in assay [7] was determined as 0.0159 nM.

B2: MOD-604 KPI (mutated OXM analog of any one of SEQ ID NOs: 5 to 7) (peptide)
peptide: HXQGTFTSDYSKYLDSKKAQEFVQWLLNXGRNRNNIAC
HELM: PEPTIDE1{H.[Aib].Q.G.T.F.T.S.D.Y.S.K.Y.L.D.S.K.K.A.Q.E.F.V.Q.W.L.L.N.[Aib].G.R.N.R.N.N.I.A.C.[am]}$$$$V2.0; N-terminus assumed
SMILES: CC[C@H](C)[C@H](NC(=O)[C@H](CC(N)=O)NC(=O)[C@H](CC(N)=O)NC(=O)[C@H](CCCNC(=N)N)NC(=O)[C@H](CC(N)=O)NC(=O)[C@H](CCCNC(=N)N)NC(=O)CNC(=O)C(C)(C)NC(=O)[C@H](CC(N)=O)NC(=O)[C@H](CC(C)C)NC(=O)[C@H](CC(C)C)NC(=O)[C@H](Cc1c[nH]c2ccccc12)NC(=O)[C@H](CCC(N)=O)NC(=O)[C@@H](NC(=O)[C@H](Cc1ccccc1)NC(=O)[C@H](CCC(=O)O)NC(=O)[C@H](CCC(N)=O)NC(=O)[C@H](C)NC(=O)[C@H](CCCCN)NC(=O)[C@H](CCCCN)NC(=O)[C@H](CO)NC(=O)[C@H](CC(=O)O)NC(=O)[C@H](CC(C)C)NC(=O)[C@H](Cc1ccc(O)cc1)NC(=O)[C@H](CCCCN)NC(=O)[C@H](CO)NC(=O)[C@H](Cc1ccc(O)cc1)NC(=O)[C@H](CC(=O)O)NC(=O)[C@H](CO)NC(=O)[C@@H](NC(=O)[C@H](Cc1ccccc1)NC(=O)[C@@H](NC(=O)CNC(=O)[C@H](CCC(N)=O)NC(=O)C(C)(C)NC(=O)[C@@H](N)Cc1c[nH]cn1)[C@@H](C)O)[C@@H](C)O)C(C)C)C(=O)N[C@@H](C)C(=O)N[C@@H](CS)C(N)=O
Consider B2, for which the “EC50 (nM), GLP-1 activity” value in assay [1] was 0.13 nM. In the assay with glucagon receptor (GCGR) [2], the “% EC50 compare to KPI (GCGR)” value was found to be 72%; the “Activity fold reduction compared to OPK-88003 KPI (GCGR)” value came to 1.4 fold; the “EC50 [nM] GCGR, CBA potency assay” value is 0.83 nM. In assay [3], the “% EC50 compare to KPI (GLP1)” value turned out to be 45%; the “Activity fold reduction compared to OPK-88003 KPI (GLP1)” value worked out at 2.2 fold; the “EC50 [nM] GLP1, CBA potency assay” value was determined as 0.282 nM.
